Measurements: publication PMC12090727, “Cell binding, uptake, and infection of influenza A virus using recombinant antibody-based receptors” (Journal of Virology, 2025)

Tests used:
[1] = molecular target: T1, hemagglutinin (HA) of A/Netherlands/602/2009 (pH1N1), on virions (Influenza A virus …, UniProt C3PSV2); assay: flow cytometry on cells; details: partners not purified
T1 construct: also called A/Netherlands/602/09; A/Neth/09

[2] = molecular target: T2, HA-hFc probe: H1N1 A/California/04/2009 HA ectodomain fused to human IgG1 Fc (Influenza A virus A/California/04/2009 …, UniProt C3W5S1); assay: flow cytometry on cells; details: one partner purified
T2 construct: also called HA-probe; HA-human Fc probe; source: High Five insect cells (recombinant baculovirus), purified (HiTrap Protein G); not shown: Fc (human IgG1), C-terminal, kept

B1: fTfR-5J8 chimeric antibody-based receptor, stably expressed on A549 Slc35A1 KO cells (scFv, V domains shown)
VH: EVQLVESGPGLVKPSDILSLTCAVSGYSISSNYYWGWIRQPPGKGLEWIGSIYHSGSTYYKPSLESRLGISVDTSKNQFSLKLSFVSAADTAVYYCARHVRSGYPDTAYYFDKWGQGTLVTVSS
VL: SYVLTQPPSVSVAPGETARISCGGNNIGTKVLHWYQQTPGQAPVLVVYDDSDRPSGIPERFSGSNSGNTATLTISRVEVGDEADYYCQVWDISTDQAVFGGGTKLTVL
notes: also called LV-fTfR-5J8; LV-5J8-TfR
[1]
  binding result: binds

B2: Flag-tagged fTfR-5J8 receptor, WT (Flag+) (scFv, V domains shown)
VH: EVQLVESGPGLVKPSDILSLTCAVSGYSISSNYYWGWIRQPPGKGLEWIGSIYHSGSTYYKPSLESRLGISVDTSKNQFSLKLSFVSAADTAVYYCARHVRSGYPDTAYYFDKWGQGTLVTVSS
VL: SYVLTQPPSVSVAPGETARISCGGNNIGTKVLHWYQQTPGQAPVLVVYDDSDRPSGIPERFSGSNSGNTATLTISRVEVGDEADYYCQVWDISTDQAVFGGGTKLTVL
notes: also called WT receptor
[2]
  binding result: binds
